B1: N-His6-GFP-BAX α2–α5 (53–128), C62S/C126S (domain or fragment, human, UniProt Q07812 53-128, looked up)
chain: DASTKKLSESLKRIGDELDSNMELQRMIAAVDTDSPREVFFRVAADMFSDGNFNWGRVVALFYFASKLVLKALSTK
notes: BAX α2–α5 truncate, residues 53–128, human; also called BAX α2–α5 WT; wild-type BAX α2–α5; source: E. coli, purified (Ni-NTA, SEC Superdex S-200); not shown: His6, N-terminal, kept; GFP, N-terminal, kept
B2: GFP-BAX α2–α5 Y115A (domain or fragment, human, UniProt Q07812 53-128, looked up)
chain: DASTKKLSESLKRIGDELDSNMELQRMIAAVDTDSPREVFFRVAADMFSDGNFNWGRVVALFAFASKLVLKALSTK
notes: BAX α2–α5 truncate, residues 53–128, human; source: E. coli, purified (Ni-NTA, SEC Superdex S-200); not shown: His6, N-terminal, kept; GFP, N-terminal, kept
B3: GFP-BAX α2–α5 L113A/F114A (domain or fragment, human, UniProt Q07812 53-128, looked up)
chain: DASTKKLSESLKRIGDELDSNMELQRMIAAVDTDSPREVFFRVAADMFSDGNFNWGRVVAAAYFASKLVLKALSTK
notes: BAX α2–α5 truncate, residues 53–128, human; also called double alanine mutant; source: E. coli, purified (Ni-NTA, SEC Superdex S-200); not shown: His6, N-terminal, kept; GFP, N-terminal, kept
B4: GFP-BAX α2–α5 F114A (domain or fragment, human, UniProt Q07812 53-128, looked up)
chain: DASTKKLSESLKRIGDELDSNMELQRMIAAVDTDSPREVFFRVAADMFSDGNFNWGRVVALAYFASKLVLKALSTK
notes: as for B2
B5: GFP-BAX α2–α5 F116A (domain or fragment, human, UniProt Q07812 53-128, looked up)
chain: DASTKKLSESLKRIGDELDSNMELQRMIAAVDTDSPREVFFRVAADMFSDGNFNWGRVVALFYAASKLVLKALSTK
notes: as for B2
B6: GFP-BAX α2–α5 L113A/F114A/F116A (domain or fragment, human, UniProt Q07812 53-128, looked up)
chain: DASTKKLSESLKRIGDELDSNMELQRMIAAVDTDSPREVFFRVAADMFSDGNFNWGRVVAAAYAASKLVLKALSTK
notes: BAX α2–α5 truncate, residues 53–128, human; also called triple BAX α2–α5 mutant L113A/F114A/F116A; source: E. coli, purified (Ni-NTA, SEC Superdex S-200); not shown: His6, N-terminal, kept; GFP, N-terminal, kept
B7: GFP-BAX α2–α5 L113A/F114A/Y115A (domain or fragment, human, UniProt Q07812 53-128, looked up)
chain: DASTKKLSESLKRIGDELDSNMELQRMIAAVDTDSPREVFFRVAADMFSDGNFNWGRVVAAAAFASKLVLKALSTK
notes: BAX α2–α5 truncate, residues 53–128, human; also called triple BAX α2–α5 mutant L113A/F114A/Y115A; source: E. coli, purified (Ni-NTA, SEC Superdex S-200); not shown: His6, N-terminal, kept; GFP, N-terminal, kept
B8: GFP-BAX α2–α5 Y115A/F116A (domain or fragment, human, UniProt Q07812 53-128, looked up)
chain: DASTKKLSESLKRIGDELDSNMELQRMIAAVDTDSPREVFFRVAADMFSDGNFNWGRVVALFAAASKLVLKALSTK
notes: as for B3
B9: GFP-BAX α2–α5 L113A (domain or fragment, human, UniProt Q07812 53-128, looked up)
chain: DASTKKLSESLKRIGDELDSNMELQRMIAAVDTDSPREVFFRVAADMFSDGNFNWGRVVAAFYFASKLVLKALSTK
notes: as for B2
B10: GFP-BAX α2–α5 F114A/Y115A/F116A (domain or fragment, human, UniProt Q07812 53-128, looked up)
chain: DASTKKLSESLKRIGDELDSNMELQRMIAAVDTDSPREVFFRVAADMFSDGNFNWGRVVALAAAASKLVLKALSTK
notes: BAX α2–α5 truncate, residues 53–128, human; also called triple alanine mutant F114A/Y115A/F116A; source: E. coli, purified (Ni-NTA, SEC Superdex S-200); not shown: His6, N-terminal, kept; GFP, N-terminal, kept
B11: GFP-BAX α2–α5 L113A/Y115A/F116A (domain or fragment, human, UniProt Q07812 53-128, looked up)
chain: DASTKKLSESLKRIGDELDSNMELQRMIAAVDTDSPREVFFRVAADMFSDGNFNWGRVVAAFAAASKLVLKALSTK
notes: BAX α2–α5 truncate, residues 53–128, human; also called triple alanine mutant L113A/Y115A/F116A; source: E. coli, purified (Ni-NTA, SEC Superdex S-200); not shown: His6, N-terminal, kept; GFP, N-terminal, kept
B12: GFP-BAX α2–α5 L113A/F116A (domain or fragment, human, UniProt Q07812 53-128, looked up)
chain: DASTKKLSESLKRIGDELDSNMELQRMIAAVDTDSPREVFFRVAADMFSDGNFNWGRVVAAFYAASKLVLKALSTK
notes: as for B3
B13: GFP-BAX α2–α5 F114A/Y115A (domain or fragment, human, UniProt Q07812 53-128, looked up)
chain: DASTKKLSESLKRIGDELDSNMELQRMIAAVDTDSPREVFFRVAADMFSDGNFNWGRVVALAAFASKLVLKALSTK
notes: as for B3
B14: GFP-BAX α2–α5 F114A/F116A (domain or fragment, human, UniProt Q07812 53-128, looked up)
chain: DASTKKLSESLKRIGDELDSNMELQRMIAAVDTDSPREVFFRVAADMFSDGNFNWGRVVALAYAASKLVLKALSTK
notes: as for B3
B15: GFP-BAX α2–α5 L113A/Y115A (domain or fragment, human, UniProt Q07812 53-128, looked up)
chain: DASTKKLSESLKRIGDELDSNMELQRMIAAVDTDSPREVFFRVAADMFSDGNFNWGRVVAAFAFASKLVLKALSTK
notes: as for B3

Molecular target: the molecule itself
Test: SEC; N-His6-GFP-BAX α2–α5 proteins, Superdex S-200, TBS; the dimer is observed as a GFP-mediated dimer/oligomer of dimers

Binding result, binds:
B1
B2
B3
B4
B5
B6
B7
B8
B9
B10
B11
B12
B13
B14
B15

From PMC8363748, “The conformational stability of pro-apoptotic BAX is dictated by discrete residues of the protein core” (Nature Communications, 2021)
